Experiment [1] addresses T1, B X TQTPYKVSISGTTVI (reading uncertain).
T1 construct: row 12 of the chart; also called biotinylated 15-mer, residues 11-25
T1 peptide: {Biotin-code X}-TQTPYKVSISGTTVI
In words: Luminex bead assay [Cont.]. The method, then: (§1) A set of experiments was performed to map the epitope recognized by the anti-CD3ε antibodies. In these experiments, the anti-CD3ε antibodies were assessed for binding to a collection of overlapping 15-mer peptides spanning amino acids 1-27 of human CD3ε protein using a Luminex bead assay. Control CD3 proteins, control peptides, or the test peptides were immobilized on Luminex beads and incubated with a panel of anti-CD3 antibodies. Binding of the anti-CD3 antibodies to the peptide/protein immobilized on the Luminex bead was detected by R-Phycoerythrin conjugated secondary antibody.
(§2) Recombinant CD3 proteins (human CD3d/e heterodimer and cynomolgus CD3-epsilon (Sinobiological)) and control peptides (#p1, #p2, and #p3) were conjugated to Luminex beads using standard EDC/Sulfo-NHS chemistry. The 15-mer test peptides were synthesized as biotinylated peptides at JPT Peptide Technologies Gmbh and were immobilized on streptavidin-conjugated Luminex beads that were made using standard EDC/Sulfo-NHS chemistry and streptavidin (Invitrogen Cat. No. 434301 lot 1626028A). The Luminex beads with immobilized peptides or reagents were incubated with 50 ul of a panel of anti-CD3 antibodies (1 ug/ml) for one hour at room temperature, washed two times, incubated with mixture of anti-human and anti-mouse IgG-RPE (Jackson Immunoresearch 109-116-097 and Southern Biotech 1030-09, respectively) for 30 mins at RT, washed three times, and analyzed in the Luminex instrument to assess the level of bound anti-CD3 antibodies.

Experiment [2] has as its target T2, B X EMGGITQTPYKVSIS (reading uncertain).
T2 construct: row 7 of the chart; also called biotinylated 15-mer, residues 6-20
T2 peptide: {Biotin-code X}-EMGGITQTPYKVSIS
In words: Luminex bead assay [Cont.]. The method, then: as §1, §2

Experiment [3] concerns the target T3, B X GGITQTPYKVSISGT (reading uncertain).
T3 construct: row 9 of the chart; also called biotinylated 15-mer, residues 8-22
T3 peptide: {Biotin-code X}-GGITQTPYKVSISGT
The experiment in a line: Luminex bead assay [Cont.]. How it is done: as §1, §2

The target in experiment [4] is T4, B X GITQTPYKVSISGTT (reading uncertain).
T4 construct: row 10 of the chart; also called biotinylated 15-mer, residues 9-23
T4 peptide: {Biotin-code X}-GITQTPYKVSISGTT
The experiment in a line: Luminex bead assay [Cont.]. The method, then: as §1, §2

For experiment [5], the target named is T5, B X QDANEEMGGITQTP (reading uncertain).
T5 construct: row 17 of the chart; 14 residues; also called alanine-scan peptide G3A
T5 peptide: {Biotin-code X}-QDANEEMGGITQTP
In words: Luminex bead assay [Cont.]. The method, then: as §1, §2

The target in experiment [6] is T6, B X QAGNEEMGGITQTP (reading uncertain).
T6 construct: row 16 of the chart; also called alanine-scan peptide D2A
T6 peptide: {Biotin-code X}-QAGNEEMGGITQTP
In words: Luminex bead assay [Cont.]. The method, then: as §1, §2

For experiment [7], the target named is T7, B X QTPYKVSISGTTVIL (reading uncertain).
T7 construct: row 13 of the chart; also called biotinylated 15-mer, residues 12-26
T7 peptide: {Biotin-code X}-QTPYKVSISGTTVIL
In words: Luminex bead assay [Cont.]. How it is done:
as §1, §2

Experiment [8] has as its target T8, B X GNEEMGGITQTPYKV (reading uncertain).
T8 construct: row 4 of the chart; also called biotinylated 15-mer, residues 3-17
T8 peptide: {Biotin-code X}-GNEEMGGITQTPYKV
In words: Luminex bead assay [Cont.]. The method, then: as §1, §2

Experiment [9] has as its target T9, B X TPYKVSISGTTVILT (reading uncertain).
T9 construct: row 14 of the chart; also called biotinylated 15-mer, residues 13-27
T9 peptide: {Biotin-code X}-TPYKVSISGTTVILT
The experiment in a line: Luminex bead assay [Cont.]. How it is done: as §1, §2

Experiment [10] addresses T1, B X TQTPYKVSISGTTVI
The experiment in a line: Luminex bead assay, 1 ug/ml antibody [Cont.]. How it is done:
as §1, §2

For experiment [11], the target named is T10, B X ITQTPYKVSISGTTV (reading uncertain).
T10 construct: row 11 of the chart; also called biotinylated 15-mer, residues 10-24
T10 peptide: {Biotin-code X}-ITQTPYKVSISGTTV
The experiment in a line: Luminex bead assay, 1 ug/ml antibody [Cont.]. The method, then: as §1, §2

For experiment [12], the target named is T11, B X QDGNEAMGGITQTP (reading uncertain).
T11 construct: row 20 of the chart; 14 residues; also called alanine-scan peptide E6A
T11 peptide: {Biotin-code X}-QDGNEAMGGITQTP
The experiment in a line: Luminex bead assay, 1 ug/ml antibody [Cont.]. How it is done: as §1, §2

In experiment [13] the target is T12, B X QDGNAEMGGITQTP (reading uncertain).
T12 construct: row 19 of the chart; 14 residues; also called alanine-scan peptide E5A
T12 peptide: {Biotin-code X}-QDGNAEMGGITQTP
The experiment in a line: Luminex bead assay, 1 ug/ml antibody [Cont.]. How it is done:
as §1, §2

Experiment [14] has as its target T4, B X GITQTPYKVSISGTT
The experiment in a line: Luminex bead assay, 1 ug/ml antibody [Cont.]. How it is done:
as §1, §2

The target in experiment [15] is T13, B X EEMGGITQTPYKVSI (reading uncertain).
T13 construct: row 6 of the chart; also called biotinylated 15-mer, residues 5-19
T13 peptide: {Biotin-code X}-EEMGGITQTPYKVSI
In words: Luminex bead assay, 1 ug/ml antibody [Cont.]. How it is done: as §1, §2

Experiment [16] concerns the target T14, huCD3d/eCHO-E DT1331 (human, UniProt P04234).
T14 construct: recombinant, part of a CD3 delta/epsilon heterodimer; coupled to Luminex beads
In words: Luminex bead assay, 1 ug/ml antibody [Cont.]. How it is done:
as §1, §2

Experiment [17] concerns the target T5, B X QDANEEMGGITQTP
In words: Luminex bead assay, 1 ug/ml antibody [Cont.]. The method, then:
as §1, §2

The target of experiment [18] is T15, BSA alone (bovine, UniProt P02769).
T15 construct: carrier protein without peptide
In words: Luminex bead assay, 1 ug/ml antibody [Cont.]. The method, then:
as §1, §2

The target of experiment [19] is T16, B X ADGNEEMGGITQTPY (reading uncertain).
T16 construct: row 15 of the chart; also called alanine-scan peptide Q1A
T16 peptide: {Biotin-code X}-ADGNEEMGGITQTPY
The experiment in a line: Luminex bead assay, 1 ug/ml antibody [Cont.]. How it is done: as §1, §2

Experiment [20] addresses T17, B X QDGNEEMGGATQTP (reading uncertain).
T17 construct: row 24 of the chart; 14 residues; also called alanine-scan peptide I10A
T17 peptide: {Biotin-code X}-QDGNEEMGGATQTP
The experiment in a line: Luminex bead assay, 1 ug/ml antibody [Cont.]. How it is done:
as §1, §2

The target in experiment [21] is T18, B X MGGITQTPYKVSISG (reading uncertain).
T18 construct: row 8 of the chart; also called biotinylated 15-mer, residues 7-21
T18 peptide: {Biotin-code X}-MGGITQTPYKVSISG
In words: Luminex bead assay, 1 ug/ml antibody [Cont.]. How it is done:
as §1, §2

Experiment [22] addresses T19, (H2N-KEFSELEQSGYYVCYPRGSNPEDA-OH) vCD3e #p3-BSA (conjugated to BSA).
T19 construct: also called control peptide #p3
T19 peptide: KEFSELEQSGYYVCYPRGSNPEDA
In words: Luminex bead assay, 1 ug/ml antibody [Cont.]. The method, then: as §1, §2

No end group written: not given here. *: point of attachment. Biotin = O=C1N[C@H]2[C@H](CS[C@H]2CCCCC(=O)*)N1; code X = not defined here

T14 sequence (P04234 22-105): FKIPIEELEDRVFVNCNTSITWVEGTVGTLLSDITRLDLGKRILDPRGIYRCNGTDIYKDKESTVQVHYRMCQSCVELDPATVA
T15 sequence (P02769 25-607 limits assumed): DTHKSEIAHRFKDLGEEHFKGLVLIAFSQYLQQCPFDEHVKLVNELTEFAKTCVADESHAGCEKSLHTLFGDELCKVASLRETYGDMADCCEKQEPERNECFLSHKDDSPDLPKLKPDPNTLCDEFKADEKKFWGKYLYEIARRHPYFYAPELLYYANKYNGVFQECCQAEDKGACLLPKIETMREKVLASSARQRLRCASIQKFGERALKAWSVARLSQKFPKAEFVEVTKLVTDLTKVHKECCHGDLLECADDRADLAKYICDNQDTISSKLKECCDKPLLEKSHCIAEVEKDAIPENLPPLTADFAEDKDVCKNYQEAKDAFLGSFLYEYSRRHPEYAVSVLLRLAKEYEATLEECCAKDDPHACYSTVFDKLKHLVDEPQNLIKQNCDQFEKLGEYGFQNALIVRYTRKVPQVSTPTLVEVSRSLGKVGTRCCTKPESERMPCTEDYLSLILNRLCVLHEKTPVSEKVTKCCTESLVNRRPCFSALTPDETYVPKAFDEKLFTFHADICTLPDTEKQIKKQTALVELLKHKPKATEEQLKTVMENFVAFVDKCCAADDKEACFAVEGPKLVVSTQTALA

B1: 6d59 (antibody, V domains shown)
VH: QVHLVESGGGVVQPGRSLRLSCAASGFKFRSYGMHWVRQAPGKGLEWVAIIWYDGSKRYYADSVKGRFTISRDNSKNTLYLQMSSLRAEDTAVYYCARDLITGTTDYWGQGTLVTVSS
VL: DVVMTQSPLSLPVTLGQPASISCRSSRSLVYSDGNTHLIWFQQRPGQSPRRLIYRVSNRVSGVPDRFSGSGSGTDFTLKISRVEAEDVGVYYCLQGAHWPYTFGQGTKLEIKR
notes: also called 6d59.1; VCD3-6d59.1
On to B1, for which the binding result in experiment [1], in experiment [2], in experiment [3], in experiment [4], in experiment [5] and in [6] was “no binding (tested: 1 ug/ml)” each time. In addition, the binding result in experiment [7], in experiment [8] and in experiment [9] was “no binding (tested: 1 ug/ml)” each time. In addition, the Luminex signal turned out to be 47.5 in experiment [10]; 29.5 in experiment [11]; 1480 in [12]; 483 in experiment [13]; 43 in experiment [14]; 43 in [15]. Besides, the Luminex signal was 23200 in experiment [16]; 32.5 in [17]; 420 in [18]; 11300 in experiment [19]; 2630 in [20]; 26.5 in experiment [21]. In experiment [22], this molecule showed a Luminex signal of 473.
